Consider one molecule from patent US20030199671A1 (published 2003).

In experiment [1] the target is T1, Human IgG Fc fragment isolated from plasma (human).
T1 construct: domain: Fc fragment; also called human Fc; Fc protein
Description: fluorescence anisotropy; pH 8.0, 0.05 M Tris-HCl, 0.2 M NaCl. The procedure:
(§1) All measurements were performed in 384 well microplates with 20 nM fluorescein-labeled peptide and various concentrations of the IgG isoform in a volume of between 10 and 20 μl using a Tecan Polarion fluorescence polarization plate reader. All binding buffers included 0.01% (v/v) Tween 20 to prevent peptide adsorption to the microplate. The binding mixture was equilibrated for 10 minutes in the microplate at 30° C. prior to performing the measurement.
For orientation: In fluorescence polarisation assays a small probe gives low polarisation when free and higher when bound to something large.

For experiment [2], the target named is T2, human IgG1 (human, UniProt P01857-1 1-330 = IgG part).
T2 construct: Calbiochem; human plasma IgG1 in anisotropy studies, myeloma-derived (cat. 400120) in batch/column studies; also called hIgG1
T2 sequence (P01857 other isoform, or with tags, fused parts or gaps): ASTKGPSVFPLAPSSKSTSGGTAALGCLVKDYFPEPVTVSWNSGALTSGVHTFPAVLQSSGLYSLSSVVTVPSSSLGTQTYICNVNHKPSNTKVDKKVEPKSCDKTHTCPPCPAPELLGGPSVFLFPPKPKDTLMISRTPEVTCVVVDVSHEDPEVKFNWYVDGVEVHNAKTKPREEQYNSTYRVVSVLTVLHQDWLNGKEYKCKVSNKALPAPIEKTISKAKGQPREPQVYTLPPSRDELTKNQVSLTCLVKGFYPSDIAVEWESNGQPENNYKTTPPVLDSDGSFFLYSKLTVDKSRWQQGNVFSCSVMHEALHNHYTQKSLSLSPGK
The experiment is described as follows: fluorescence anisotropy; pH 5.7, 0.01 M Tris-acetate. The procedure: as §1

The target of experiment [3] is T3, human IgG4 (human, UniProt P01861-1 1-327 = IgG part).
T3 construct: Calbiochem; plasma IgG4 in anisotropy studies, myeloma-derived (cat. 400126) in batch/column studies; also called hIgG4
T3 sequence (P01861 other isoform, or with tags, fused parts or gaps): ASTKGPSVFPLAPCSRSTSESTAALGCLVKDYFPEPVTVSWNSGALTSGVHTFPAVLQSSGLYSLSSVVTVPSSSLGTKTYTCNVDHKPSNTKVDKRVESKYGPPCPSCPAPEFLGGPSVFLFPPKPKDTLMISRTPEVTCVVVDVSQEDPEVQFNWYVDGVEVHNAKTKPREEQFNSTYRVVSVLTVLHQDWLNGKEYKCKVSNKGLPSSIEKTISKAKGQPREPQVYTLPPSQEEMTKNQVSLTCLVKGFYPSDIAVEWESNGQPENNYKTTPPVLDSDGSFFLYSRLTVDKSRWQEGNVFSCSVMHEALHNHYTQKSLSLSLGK
The description is as above. The procedure:
as §1

Experiment [4] concerns the target T4, human IgG2 (human, UniProt P01859-1 1-326 = IgG part).
T4 construct: Calbiochem; plasma IgG2 in anisotropy studies, myeloma-derived (cat. 400122) in batch/column studies; also called hIgG2
The experiment is described as above. The procedure:
as §1

For experiment [5], the target named is T2, human IgG1. Description: fluorescence anisotropy; pH 5.7, 0.05 M NaCl. The procedure: as §1
For experiment [6], the target named is T2, human IgG1. The experiment is described as follows: fluorescence anisotropy; pH 5.7, 15% ethylene glycol. The procedure: as §1
The target in experiment [7] is T2, human IgG1. The experiment is described as follows: fluorescence anisotropy; pH 7.4, 0.01 M Tris-HCl. The procedure: as §1
The target of experiment [8] is T3, human IgG4. Description: fluorescence anisotropy; pH 7.4, 0.01 M Tris-HCl. The procedure:
as §1

Experiment [9] has as its target T4, human IgG2. The experiment is described as follows: fluorescence anisotropy; pH 7.4, 0.01 M Tris-HCl. The procedure: as §1
Experiment [10] deals with T2, human IgG1. The experiment is described as follows: mini-column chromatography, immobilised ligand. The procedure:
Thus, 250 μg of target (hIgG1, hIgG2, hIgG3, hIgG4, goat IgG and bovine IgG) at 0.250 mg/ml in PBST, pH 7.2 or TBST, pH 7.3 was loaded onto a 350 μl column (3×50 mm) run at 0.200 ml/min. flowrate (170 cm/hr). Flowthrough, elution and cleaning fractions were collected and assayed for total protein recovery by size-exclusion HPLC.

Positions of bridges follow the written chain, without caps; N, C: chain ends.

T4 sequence (P01859 other isoform, or with tags, fused parts or gaps): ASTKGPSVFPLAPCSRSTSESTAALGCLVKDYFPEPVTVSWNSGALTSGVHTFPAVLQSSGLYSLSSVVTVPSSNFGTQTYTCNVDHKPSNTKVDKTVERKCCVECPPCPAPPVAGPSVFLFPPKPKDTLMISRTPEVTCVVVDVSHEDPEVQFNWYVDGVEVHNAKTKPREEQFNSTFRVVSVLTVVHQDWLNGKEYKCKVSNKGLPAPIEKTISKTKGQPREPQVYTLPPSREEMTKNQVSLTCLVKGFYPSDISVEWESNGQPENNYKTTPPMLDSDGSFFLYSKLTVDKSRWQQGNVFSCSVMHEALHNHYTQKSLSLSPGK

Take Ac-GDDHMCVYTTWGELIWCDNHEPGPEGGGK-NH2 (disulfide 6-17 (inferred), Synthetic disulfide-cyclised peptide) [DX249]: the Kd in experiment [1] turned out to be 2500 nM; in experiment [2], 74 nM; in experiment [3] it was 300 nM; in experiment [4] it was 68 nM; in experiment [5] it was 300 nM; in experiment [6], 80 nM. The results for the Kd in experiment [7], in experiment [8] and in experiment [9] were 400 nM, 1900 nM and 1800 nM, respectively. Further, the binding efficiency in experiment [10] was greater than 90%.

The term Kd denotes a measure of binding affinity in units of concentration. A lower Kd goes with higher affinity.
